Results as given in a protein production outcome set (Wang et al. 2014).

Experiment: label from the status in PepcDB records

Row | Sequence | protein production
1 | QDVLRGTLNLYCSVTAAYSHLPQLLERFRQEHPFVEIALTTGDAANALAEIQQNRADIAIAALPDPFPATLHFAKIDDVPLSLIAPTMRCAVQQQISQTQIDWARVPFIIPDHGPGRRRADNWFKQMGISPNIYAQVSGQEAIASMVALG | failed
2 | MKPALRRGLVWIGCTASSWGGLVLPSAWSPAAIAQTRAPTNQTGMQLQINGRAIAGQWVVEPASQGSFIWIEEVALRNGLGLELLPGLSTTRQAIRWFSDGRVAEGVEQVPARRQNGRRFLEVSSLARRSGWSLAVLADQLVIQLPAATLRNLRDGQQGANRRLVLDFDRPTPWEWDAIGQQLRFDGSVPAQLVPSLQRYGIQAEQQGDRTSLRLPAGLGVRVSSLGSPDRIFIDLPTTTGLLSPPAGLGSNPAPLTPAPPDLAGTQLQQRQVTVDGATFPVFVIQLDLRQPNVRLAPIWAGNGSLEGTQVLQAVARDRGAAIAINAGFFNRNNRLPLGAIRRDNIWYSGPILNRGAMAWNDQGEVLIDRLGLQETLQLSSGTRIPLVALNSGYVRAGAARYTEAWGNSYQTILDNEVVVTVQGDRVVSQSQADKAGSNRFTIPRNGYLIVLRSANSLRTSLVNGTTIQVLQQAQPSQFDRFPHALGGGPLLVKSGRVVVNPQAEGFSRAFEIEAAPRSAIGLMPDGRLVLVAAHEQNQGQGPTLPQMAAIMQQLGVVDALNFDGGSSTSLIVNGQLVNRARGSAARVHNGLGVFLGPTTPASLR | failed
3 | MDERRFFRDVCAEWMEQYRLTVRESTLEKTQRIINIHVLPAFGDMVINNITPNVCQKVVNKWFLEAKSYKKWLNYASMIFDYALRAEYVGRNPCTLVTMPRVQEQAGEKLEHHHHHH | failed
4 | MTFRDLLSVSFEGPRPDSSAGGSSAGGGGGSAGGAAPSEGPAVGGVPGGAGGGGGVVGAGSGEDNRSSAGEPGSAGAGGDVNGTAAVGGLVVSAQGVGVGVFLAAFILMAVAGNLLVILSVACNRHLQTVTNYFIVNLAVADLLLSATVLPFSATMEVLGFWAFGRAFCDVWAAVDVLCCTASILSLCTISVDRYVGVRHSLKYPAIMTERKAAAILALLWVVALVVSVGPLLGWKEPVPPDERFCGITEEAGYAVFSSVCSFYLPMAVIVVMYCRVYVVARSTTRSLEAGVKRERGKASEVVLRIHCRGAATGADGAHGMRSAKGHTFRSSLSVRLLKFSREKKAAKTLAIVVGVFVLCWFPFFFVLPLGSLFPQLKPSEGVFKVIFWLGYFNSCVNPLIYPCSSREFKRAFLRLLRCQCRRRRRRRPLWRVYGHHWRASTSGLRQDCAPSSGDAPPGAPLALTALPDPDPEPPGTPEMQAPVASRRKPPSAFREWRLLGPFRRPTTQLRAKVSSLSHKIRAGGAQRAEAACAQRSEVEAVSLGVPHEVAEGATCQAYELADYSNLRETDI | failed
5 | MAGESGAPIRCRLLPIDMDAALGPPEQMAELEEDLTPMMAQYYELCRQYDDALVLFQVGDFYEAFCAAAKRVARLCEITLTQREDSTGEYPMAGIPIDNAESYVETLLDAGYRVAIADQVEDPDEVSGVVERAVTRIVTPGTLTESELLGGADNNYVAALTAGERYGLALLDISTGDCYATSVGSESAVADELSRFGPAEAIVGPDVDVDRDAVFGPACLVTRYDADAFAQDRAEDRVGQYFGPPERLLAGGAEIRACGGLLAYAEYTRGSSGAVGPDGEPVDPDVDPAGTLDYLNHLTRYDPREYMLLDAVAVESLELFKRRSVRGHENRTLVDTVDETACALGRRKLTDWLRRPLLDADRIEARHGAVAELQRDPATREELSALLAEVYDLERLISRVSRGRANARDLRSLAATLSVVPDIRDHLADADARLLADLHATLDPLAETREEIEAAIRPDPPQQVTEGGVIREGYDEELDRLRSTEQSGKEWIDELEASERERTGIDSLKVGHTSVHGYYIEVTNANLDAVPEDYQRRQTLKNSERYYTPALKEREDEILRAESAADDLEYDLFCAVRDEVADEAERVQALADRLARLDVLVSFAEVAAQYDYCRPTVGSDGIDVTAGRHPVVERTEDAFIPNDTHLGSGPVPASRDGSDDGVTADDIQPFLAVVTGPNMSGKSTYMRQVALICLLAQSGSFVPAKAADLPILDRVFTRVGASDDIAGGRSTFMIEMTELATILDAATENSLVLLDEVGRGTSTADGLAIARAVTEYLHDEVGAYTLFATHHHDLTAVAAALSGATNRHFETSREDGDVRFDHELAPGPAAASYGVEVASMAGVPDSVVERSRDLLADAETADTGVEATRETEVASEPRPGTRADSETDSTATETTGPTENGAASAPAGEATSDDHAQEVFQTNGAAAEDELPESVAQQLASLDVATMTPIEAMNALADLQDRIE | failed
6 | MRVRTERLTLAGLSVLARIPEAPKALLLALHGLQGSKEHILALLPGYAERGFLLLAFDAPRHGEREGPPPSSKSPRYVEEVYRVALGFKEEARRVAEEAERRFGLPLFLAGGSLGAFVAHLLLAEGFRPRGVLAFIGSGFPMKLPQGQVVEDPGVLALYQAPPATRGEAYGGVPLLHLHGSRDLIVPLARMEKTLEALRPHYPEGRLARFVEEGAGHTLTPLMARVGLAFLEHWLEAR | not failed
7 | MELAVHDATEDGAGYATAASSWVVVEPEFVVDVTDIRSFVQCPRLYYLNKLSGLPLKYPVTKGTIVHEVFGDLLRGRDLEASVAQRVDEAGLELGLLGRSRAEVEADVRDNASAIEGWLQQGRLTDEDEWRSEYTLVSERFGIKGRCDAIRRGMPVELKTGKNTNREPRFHDKVQAACYALMLDEHGVPADTGTLLYTKNAAVDRSEASGDLSPAKEFSIGRGFLEFVVRERNHLAALEASDGPPTGYEADAKCDYCFEQDTCMVVSGRLDQESKAGRIGDPVPAEERAYFDELYDAIEAERGAIHDEYRKLWEQSPDERAADDRAVVGLSPAEQTELPDGRWRLTATRPGSAASKIREGDRVLASDGDPVAGRAEMARVERLDADRVEVTTDEPVSLCRLDVYPSELSVDRMLTALHDAVLKSDQRRTDLLFDRASPRFEGGDHDLIPNNDAQNAAVNRALNAEDFALVHGPPGTGKTYTIATLVQAFVARGDRVLVSAFTNRAVDNALDALRQQGHEDIVRVGTETGVRADMQDLRLDRSGDPGERAAALRSAPVVAATTATCGSRILRELEFDVVLVDEASQLTEPDTLAAINRGARFVLVGDHEQLPPVVRSGGRLSKSLFERLHETYPEASVMLDQQYRMSQRIQAFSSREFYDGQLRPASSEVAGQRLTDVGVDPGGAVHGGVTFYDVPGTDDAHVDPAEADRVADVVTAYVDAGLDPGEIGVIAPFRAQVAEIGRRTPAGVAVDTVDRFQGSSKEVIVVSFVARGTLEGPIFEDHRRVNVALSRAKKSLVLVGDERALRSEPLYDRMIDWADMELEHHHHHH | failed
8 | MLIILTGLPSVGKSTFSKAFSKKMAEKNIDNIILGTDLIRESFPVWKESYEEFIRDSNNYLIKEALENKFSVIVDDTNYYNSKRRDLMNIAKECDTNYVTIYLKAPLNLLLKRNIERGQKIPNEVIKNMYEKFDTPGTKYAWDLPDITVDTTEKIDYNEILNEILEINENKNLKIEEDKIPKSEPVESDLVKIDSLTRNIVGNLIKTGKIDKKDIKLLSEIRKSFLKDCKKIESEKLDFEKIEKDFLDYLNKNLK | failed
9 | MTDRYIAFANSPVGRRLVGAVGLPSPLRLERWQAGRVRPVDGPLVIGGSGALAEAVLPFAGKLTDAVFAAVDGQFELPRWTAEHSPRAKAVLFDASGLTRFEQLVALRDFFQPVLKGLDKCPKVVVLGRPPESLKDPVTASVQRSLEGFTRSLGKEIRRGGNVQLLYVGKGAEDQLEGALRFFLSPKSAYVSGQVIRLAANSAQVHDWSKPLAGQRALVTGAARGIGAAIAETLARDGAEVVLLDVPPAREALEGLAARLGGRAVALDICAADAGQQLVEALPEGVDIVVHNAGITRDKTLAKMSSDFWNSVINVNLNAPQVLTQALLDGGKLHDNGRVVLLASISGIAGNLGQSNYAVSKAGLIGLAQAWAPALGKRGITINAVAPGFIETQMTAAIPLTIREAGRRMNSMSQGGLPQDVAETVAWFAQPSSGAVSGQVLRVCGQSLLGA | failed
10 | MNSLPSPHPPLSPAVPVASRAALRLAELGVFVLTALVVNMPSGLLPFGVCLLGGTLLGWRSLRAGLATQGWSLRVLTGLTAVVIAMSVLSIVLFEPSVRDVENRSRFLVLPWAALWAYALQPRQVWLWRGALAGVFAAMLVAILQVMNGAERAEGWTNAIVFADIALMLLVVAIFCRPNGQVRWLLGAAVAAVAVIVLSGSRGVWLSLLVTLGVLVWGAPWQSARMRLLAFVGGAVVCVGLVLSVPGLTEQLRIGELQSDFQRYEVGDADSSAGARIERLHVAWDTLQAHPLTGVGVGRFDDAMRELPLCAGDTWLLRCHLGHAHNDLAEWGATQGIPGLLLLIAVYGVPLWMFVRLHRRSGQRQFRGPAAAGVMIVISYALCGLTQSMFAHQVSASFYAAMVGILAGLAARQAQQHATAASPLAQSAR | failed
11 | MTLLVGLGNPTLRYAHTRHNAGFDILDSLVSELDLSFTFSPKHNAFLCVYKDFIFLKPQTYMNLSGESVLSAKNFYKTKELLIVHDDLDLPLGVVRFKNGGGNGGHNGLKSIDLLCSNSYYRLRVGISKGIGVIEHVLSKFHKNEEPLKNAAFEHAKNALKFFIESHDFNAMQNRFTLKKPLKIES | failed
12 | DISKITDVAVMTVEGANDDISAPGQCIAALDLCTGLADSKKANHLEPGAGHYGIFAGRSWRDNIRPLVIDFMNTNSRKGKSLRPANKNSAA | failed
13 | MRYGRTVPVTEAAELPPAPEQAREVFGDRFADAVRYAELLAEAGVQRGLIGPREVPRLWERHLLNCAVLSEVVPEGVTVCDVGSGAGLPGIPLALVREDLKITLLEPLLRRTNFLTEVVELLGLDHVTVIRGRAEEVMGKIPPVHVVTARAVAPLDRLATWGIPLLRPYGEMLALKGDTAEEELKSAATALSKLGAVETSVLHVGEGVVDPLSTVVRVEVGESPGGVRFAAKRAKAARTGRTRRRR | failed
14 | MTEGRVIDVDVSSEMESSFLEYAVSVIHSRALPDARDGLKPVQRRIVYQMGDMGLRPERGHVKSSRIVGDVMGKLHPHGDTAIYDALVRLSQSFIMRVPLVDGHGNFGSLDDGPAAPRYTEARLTSASMQMIAGLDEDVVDFVGNYDNTLTQPEVLPSAFPNLLINGTSGIAVGMATNMAPHNPGEVIAACCHLIRNPEAGLAELMRFIPGPDLPTGGRIIGLDGVREAYETGRGTFRTRATVSIENINARRKGIVVTELPYLVGPEKVVSKVKDAVGAKKLTGIASIDDYSDRKNGMRLVIGIKNGFNPEAVLAELYRQTPLEESFSMNNVCLVDGQPRTLGLRELLTVYLAHRIDVIRRRTVFQLRKAKDRLHLVEGLLIAILDIDEVIQLIRSSDDAATARTRLMDVFELSELQATYILDLQLRRLTKFSRIELEAERDELRKKIAYLEDLLADEAKLRELVATELEATAEAIGSPRRTVLIEGSMKELSAKGKKAQADLKIADAPCRVLLSTSGRIARTADASPLQRVGKRSSHDALRSEIVSTTQGKVGAVTSTGRLHMVDVVDLPALPPAATRPNVAGGVKIADYVTLEKNETVLGLIDLDREFVLGTAGGVVKRVSVAARPNKSEWEAITLKGKDSVIGVAQPKDIDESLAVFVTSNAQLLAFDASGLRAQGWNASGVAGMKVAADARALFFGMTPKAAKTDEEGDADTNIGTFAVVTVASGENFYGAPSSSIKVSDFSEYPTKGRATSGVRAHKFLKGETELSLAWVGDSPQAAAQAGGARTLPAEMSRRDATGSPLESKIDVIGTVPRLGDAEAALSGGGAGAGDSGAAGTDASGDGGAASGGGSSSSAATRTQGLATNFGELDLDLDGGPDLDEAKEEIARSKIDSDDAVIVSHDDDDDDDTALF | failed
15 | MKETYYFAYGSNMNLDQMAYRCPAASVVEPVHLEGYRLTFCGRGKGSGVATILPEEGSRVEGVLWKITPECEKSLDFYEGYPHLYGKEPVLVQGKDGMKREVMAYTMNAPYKDQPAIPSDLYFMGIVEGCHQNGISSRSVTDALKRVREEVGRQKPSQKKTEVSR | failed
